From patent publication US20160008398A1

Key:
[1] = molecular target: CMV pp65 presented by HLA-A*0201
[2] = molecular target: 4-1BB (human) (UniProt Q07011)

“CMV pp65-specific T lymphocytes (cells without a defined receptor)” showed a T cell expansion after weekly restimulation with HLA-A*0201^+ pp65-transduced Caco-2 tumor cells [1] of 209 fold.

For “dsRed-monomer-4-1 BBL fusion protein (from UniProt P41273) (ligand)”, the Granzyme B density near the immunological synapse (fold reduction) [2] was 2.02.
